In patent US11840563B2, “Methods of treating cancer by administering inhibitory RNA molecules targeting protease serine 2 (PRSS2) expression” (Children's Medical Center Corporation, priority 2017, dated 2023):

Legend:
[1] = target: PRSS2 (Homo sapiens, UniProt P07478); assay: Co-immunoprecipitation of LRP1 peptides with PRSS2; format: binding
Description: (§1) FIGS. 16A-16B. Co-immunoprecipitation of LRP1 peptides with PSAP (FIG. 16A) or PRSS2 (FIG. 16B).
(§2) To map the binding sites on LRP1 that binds to prosaposin (PSAP) and/or PRSS2, peptides derived from binding domain I of LRP1 (SEQ ID NOs: 3 and 7-18) were tested for their ability to co-immunoprecipitate with PSAP or PRSS2.

[2] = target: T1, prosaposin (PSAP) (Homo sapiens, UniProt P07602); assay: Co-immunoprecipitation of LRP1 peptides with PSAP; format: binding
T1 sequence (P07602 60-524): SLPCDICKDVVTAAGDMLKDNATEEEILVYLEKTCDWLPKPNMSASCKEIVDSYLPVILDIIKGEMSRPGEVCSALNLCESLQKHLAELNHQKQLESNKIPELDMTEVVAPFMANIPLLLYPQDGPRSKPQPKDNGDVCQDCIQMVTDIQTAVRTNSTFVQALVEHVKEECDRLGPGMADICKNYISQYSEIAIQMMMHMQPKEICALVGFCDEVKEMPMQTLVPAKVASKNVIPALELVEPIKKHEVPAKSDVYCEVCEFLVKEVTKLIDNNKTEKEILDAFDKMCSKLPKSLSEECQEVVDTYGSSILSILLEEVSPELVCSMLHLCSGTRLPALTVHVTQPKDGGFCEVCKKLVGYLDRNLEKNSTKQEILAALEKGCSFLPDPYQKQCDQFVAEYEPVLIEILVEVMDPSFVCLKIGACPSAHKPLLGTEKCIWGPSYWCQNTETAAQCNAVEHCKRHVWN
Description: as §1, §2

[3] = system: Tsp-1; assay: Western blot of Tsp-1 in lung fibroblasts treated with LN4 CM alone or with STI or Rac1 inhibitor; format: cell-based; settings: lung fibroblasts (W138 cells), co-treatment with LN4 conditioned media
Description: FIG. 11. Western blot analysis of Tsp-1 and β-actin expression in lung fibroblasts that were untreated (−) or treated with LN4 CM alone or in combination with STI.
FIG. 12. Western blot analysis of Tsp-1 and β-actin expression in lung fibroblasts that were untreated (−) or treated with LN4 CM alone or in combination with Rac1 inhibitor.
Attention was then turned to the mechanism by which PC3M-LN4 cells repress Tsp-1 in the tumor microenvironment. In doing so, LN4 conditioned media (CM) was fractionated over a Cu^2+/heparin sepharose column with increasing concentrations of NaCl. The eluted fractions were used to treat lung fibroblasts and Tsp-1 induction was analyzed by western blot. […] By analyzing the protein content of the eluted fractions by tandem liquid chromatography/mass spectrometry (LC/MS), a protein was identified that was present in the active fractions of LN4 CM, but not present in the adjacent fractions or the fractions eluted with the same NaCl concentrations from PC3 CM. The identified protein was the serine protease PRSS2. […] Finally, the signaling pathway emanating from LRP1 that was mediating the PRSS2-induced repression of Tsp-1 was sought to be delineated. […]

[4] = system: Tsp-1; assay: Western blot of Tsp-1/p53 in prostate fibroblasts treated with PC3 conditioned media with or without RAP or PKC inhibitor; format: cell-based; settings: co-treatment with inhibitor
Description: FIGS. 6A-6B. Western blot analysis of: (FIG. 6A) Tsp-1 and β-actin expression in prostate fibroblasts that were untreated (−) or treated with conditioned media from PC3 cells alone or in combination with RAP, and (FIG. 6B) Tsp-1, p53 and β-actin expression in prostate fibroblasts that were untreated (−) or treated with conditioned media from PC3 cells alone or in combination with the PKC inhibitor Go 6983 (PKCi).
Thus, in order to determine how prosaposin was able to stimulate the expression of Tsp-1 and p53 in tumor-associated fibroblasts, prostate fibroblasts were treated with PC3-conditioned media in the presence and absence of Receptor Associate Protein (RAP), a competitive inhibitor or LRP1 binding. […] To determine whether prosaposin-mediated stimulation of Tsp-1 utilized this pathway, fibroblasts were treated with CM from PC3 cells in the presence and absence of the PKC inhibitor Gö 6983. […] Thus, it is believed that Prosaposin functions via binding to LRP1.

[5] = system: Tsp-1; assay: Western blot of Tsp-1 in lung fibroblasts treated with psap peptide alone or with rhRAP or Y27632; format: cell-based; settings: co-treatment with peptide, rhRAP 25 or 50 μg
Description: FIGS. 8A-8B. Western blot analysis of Tsp-1 and β-actin expression in lung fibroblasts, which were (FIG. 8A) untreated (−) or treated with psap peptide alone or in combination with 25 or 50 μg of rhRAP, and (FIG. 8B) untreated (−) or treated with psap peptide alone or with Y27632.
In order to delineate the pathway leading from LRP1 to Tsp-1 stimulation by prosaposin, two pathways that have been reported to be stimulated by LRP1 under different conditions were chosen to be examined: Rho and Rac.

Sequence of PRSS2 (P07478 16-247 limits assumed): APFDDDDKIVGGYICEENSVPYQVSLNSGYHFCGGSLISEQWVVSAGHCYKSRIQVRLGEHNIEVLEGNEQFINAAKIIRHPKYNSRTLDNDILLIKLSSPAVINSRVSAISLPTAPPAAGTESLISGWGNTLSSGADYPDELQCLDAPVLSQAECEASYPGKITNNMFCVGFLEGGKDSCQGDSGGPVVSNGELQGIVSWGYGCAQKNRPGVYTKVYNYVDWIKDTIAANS

Molecule: FICGCVEGYLLQPDNRSCKAKN [Peptide 13]
- binding to PRSS2 (co-immunoprecipitation) ([1]; listed as peptide 13): bind to both PRSS2 and PSAP
- binding to PSAP (co-immunoprecipitation) ([2]; listed as peptide 13): bind to both PRSS2 and PSAP

Molecule: CCN(CC)CCCC(C)Nc1nc(C)cc(Nc2ccc3nc(C)cc(N)c3c2)n1 (racemic) [Rac1 inhibitor, reference compound]
- effect on repression of Tsp-1 by LN4 CM [3]: Tsp-1 levels were restored to basal levels

Molecule: COc1ccc2c(c1)c(C1=C(c3c[nH]c4ccccc34)C(=O)NC1=O)cn2CCCN(C)C [Gö 6983]
- stimulation of Tsp-1 by PC3-conditioned media [4]: abolished the stimulation
- stimulation of p53 by PC3-conditioned media [4]: abolished the stimulation

Molecule: YGTCSQLCTNTDGSFICGCVEGYLL [Peptide 12]
- binding to PRSS2 (co-immunoprecipitation) ([1]; listed as peptide 12): bind to both PRSS2 and PSAP
- binding to PSAP (co-immunoprecipitation) ([2]; listed as peptide 12): bind to both PRSS2 and PSAP

Molecule: C[C@@H](N)[C@H]1CC[C@H](C(=O)Nc2ccncc2)CC1 [Peptide Y27632, Y27632, reference compound]
- effect on stimulation of Tsp-1 by the psap peptide [5]: completely abrogated

B1: STI: serine protease inhibitor able to inhibit all members of the trypsin family (protein, UniProt P01070 25-205, looked up)
Trypsin inhibitor A: DFVLDNEGNPLENGGTYYILSDITAFGGIRAAPTGNERCPLTVVQSRNELDKGIGTIISSPYRIRFIAEGHPLSLKFDSFAVIMLCVGIPTEWSVVEDLPEGPAVKIGENKDAMDGWFRLERVSDDEFNNYKLVFCPQQAEDDKCGDIGISIDHDDGTRRLVVSKNKPLVVQFQKLDKESL
- effect on repression of Tsp-1 by LN4 CM [3]: completely abrogated the repression of Tsp-1

B2: RAP: Receptor Associate Protein (RAP), a competitive inhibitor or LRP1 binding (protein, UniProt P30533 35-357, looked up)
Alpha-2-macroglobulin …: YSREKNQPKPSPKRESGEEFRMEKLNQLWEKAQRLHLPPVRLAELHADLKIQERDELAWKKLKLDGLDEDGEKEARLIRNLNVILAKYGLDGKKDARQVTSNSLSGTQEDGLDDPRLEKLWHKAKTSGKFSGEELDKLWREFLHHKEKVHEYNVLLETLSRTEEIHENVISPSDLSDIKGSVLHSRHTELKEKLRSINQGLDRLRRVSHQGYSTEAEFEEPRVIDLWDLAQSANLTDKELEAFREELKHFEAKIEKHNHYQKQLEIAHEKLRHAESVGDGERVSRSREKHALLEGRTKELGYTVKKHLQDLSGRISRARHNEL
- stimulation of Tsp-1 by PC3-conditioned media [4]: no longer stimulated Tsp-1
- effect on stimulation of Tsp-1 by the psap peptide [5]: blocked the stimulation of Tsp-1 in a dose-dependent fashion
